Results taken from the supplement of paper PMC10567573.

B1: CDC25B (parent)
chain: FVDILESDLKDDDAVPPGMESLIS

Variants of: B1
Assay: protein stability index of a GFP-peptide fusion (GPS, HEK-293T) (PSI 1-6); higher = more stable
Conditions: c terminus: a fixed tail appended
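Further: lentivirally expressed fusions sorted by FACS into six bins by GFP to DsRed ratio, PSI derived from sequencing read proportions per bin multiplied by bin number.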

Protein stability index of substitutions, site by site:
P16: W 2.52; V 3.07; L 2.76; H 3.14; M 2.6; A 2.98; S 2.88; N 3.23; I 2.44; E 3.04; K 3; D 3.62; G 3.02; T 2.98; C 2.68; F 2.06; R 2.59; Q 2.79; Y 2.82
G18: I 2.32; F 2.26; V 2.87; E 3.39; P 3.18; D 3.29; M 2.6; S 3.06; L 3.51; Y 2.65; R 2.87; C 2.6; T 3.28; Q 2.86; K 2.8; A 3.03; W 2.31; H 3.11; N 3.23
A14: Y 2.49; N 3.29; E 3.05; S 3.24; W 2.65; I 2.65; F 2.49; H 2.75; Q 2.33; L 2.8; V 3.15; C 2.86; M 3; G 2.53; P 3.15; T 3.61; D 3.48; K 2.96; R 2.75
V2: Q 3.98; I 3.8; M 4.76; L 3.73; Y 4.29; S 5.04; W 3.32; N 4.96; G 3.81; E 5.29; R 4.31; H 4.68; D 5.14; T 4.43; P 4.8; C 3.65; K 4.67; A 4.51; F 4.08
D3: T 2.39; F 1.6; A 2.65; I 2.75; Q 3.04; L 1.93; C 2.4; S 2.96; V 1.86; Y 2.15; N 2.81; E 3.46; W 1.91; P 2.93; R 2.12; G 2.83; K 2.65; M 1.92; H 2.91
I4: F 2.8; Y 2.52; C 3.91; N 4.34; P 4.03; V 3.13; R 3.11; Q 3.75; L 2.75; M 2.47; E 4.52; S 4.05; G 3.46; K 2; T 3.37; W 2.29; D 4.54; A 4.18; H 3
K10: A 2.77; H 2.97; N 2.87; T 3.46; E 3.33; W 2.43; R 2.75; C 3.11; F 2.63; I 2.72; Q 2.97; P 3.1; Y 2.59; M 3.2; L 2.45; V 3; D 2.91; G 3.5; S 2.52
E6: Y 2.33; R 2.2; H 2.55; G 2.31; T 2.58; L 2.45; P 2.37; M 2.38; I 1.93; C 2.13; F 2.68; Q 2.89; D 2.88; S 2.54; V 2.19; K 2.84; N 3.13; A 2.04; W 2.32
D13: W 2.62; R 2.1; C 2.56; K 2.96; N 2.67; F 2.38; G 2.61; P 2.83; Y 2.11; S 2.63; Q 2.71; A 3.04; M 2.33; T 2.75; L 2.61; E 2.95; H 2.7; I 2.08; V 2.39
P17: V 2.27; M 2.69; A 2.95; T 3.51; G 3.25; I 2.45; Q 3.2; K 2.45; C 2.58; R 2.19; F 2.21; N 2.66; Y 2.71; L 2.43; S 2.72; H 2.61; W 1.81; E 3.6; D 3.2
M19: D 3.48; C 2.91; A 3.22
D11: W 1.8; F 2.52; L 2.25; Q 2.51; T 3.28; S 2.94; K 3.02; E 3.17; A 3; I 2.6; R 2.25; V 2.61; P 2.68; Y 2.71; G 2.78; C 2.25; H 2.37; N 2.5; M 2.6
F1: R 4.96; T 5.31; N 5.3; P 5.46; Y 3.83; S 5.39; W 2.5; Q 5.4; V 4.08
D12: Y 2.69; I 2.21; M 2.08; W 1.83; A 2.84; E 2.93; T 2.65; N 2.67; C 2.5; G 3.01; L 2.9; Q 2.62; F 2.19; V 2.56; S 2.96; K 2.78; H 2.88; R 2.16; P 2.66
D8: Q 2.67; R 2.7; T 2.66; M 2.55; C 2.15; N 3.18; S 2.38; Y 2.62; W 2.54; G 2.93; E 2.89; A 2.58; I 2.56; H 2.79; K 2.48; P 2.31; L 2.9; V 2.7; F 2.32
S7: H 2.6; L 2.21; E 3.79; K 2.6; G 3.22; I 2.3; Q 3.19; F 1.9; V 2.17; N 2.57; P 2.83; W 1.36; A 2.79; C 3.23; T 2.85; R 2.47; D 3.67; Y 2.77; M 2.6
V15: R 2.69; Q 2.87; E 3.11; L 2.78; S 3.32; N 3.27; I 3; H 3.04; F 2.39; A 2.78; D 3.11; M 3.02; G 3.19; C 2.88; T 2.92; W 2.69; K 2.96; Y 3.1
L5: N 3.81; Y 2.8; H 3.7; W 1.85; P 3.75; F 2.35; A 3.84; G 3.73; C 3.02; E 4.46; R 2.94; Q 3.67; D 4.61; V 3.03; M 3.57; I 2.46; K 3.63; S 4.58; T 3.51
L9: Q 3.18; C 3.05; G 3.05; F 2.85; H 3.33; T 3.23; S 3.36; Y 3.18; P 3.62; M 3.03; K 3.4; E 3.39; I 3.05; N 3.67; W 2.97; V 2.93; A 3.09; R 3.08; D 3.21
